Measured values published in US20240067720A1 (SHANGHAI JUNSHI BIOSCIENCES, published 2024).

Target: T1, hTIGIT expressed on Jurkat reporter cells (hTIGIT/NFAT-luciferase) (human, UniProt Q495A1 22-244)
T1 sequence (looked up): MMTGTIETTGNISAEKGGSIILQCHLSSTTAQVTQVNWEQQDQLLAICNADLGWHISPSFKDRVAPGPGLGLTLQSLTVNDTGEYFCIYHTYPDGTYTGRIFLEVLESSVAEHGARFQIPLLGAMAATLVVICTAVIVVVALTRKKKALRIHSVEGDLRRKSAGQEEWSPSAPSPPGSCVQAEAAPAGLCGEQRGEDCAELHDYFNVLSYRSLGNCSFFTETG
Test: cell-based or functional assay

B1: humanized anti-TIGIT monoclonal antibody hu20 (antibody, human IgG4 S228P, kappa, V domains shown)
VH: QVQLVQSGAEVKKPGASVKVSCKTSGYAFTEYTMHWVRQAPGKGLEWMGGINPNTGGTTYNQKFQGRVTLTVDKSSSTAYMELSSLRSEDTVVYYCAKLLRLMYYFDYWGQGTLVTVSS
VL: DIQMTQSPSSLSASVGDRVTITCQASQDVRTAVAWYQQKPGKAPKLLIYSASYRYTGVPSRFSGSGSGTDFTFTISSLQPEDIATYYCHQHYITPWTFGGGTKVEIKR
EC50 of T cell activation; luminescence of Jurkat hTIGIT/NFAT-luciferase reporter cells co-cultured with CHO cells expressing hPVRL2: 0.0424 µg/mL
